Experimental data as given in article PMC7813835, “Structure of SRSF1 RRM1 bound to RNA reveals an unexpected bimodal mode of interaction and explains its involvement in SMN1 exon7 splicing”.

Columns and labels:
[1] = target: T1, SRSF1 RRM1+2 YS (RRM12 YS) (human, UniProt Q07955 1-196, Y37S;Y72S); test: ITC; NMR buffer: 50 mM L-Glu, 50 mM L-Arg, 0.05% beta-mercaptoethanol, 20 mM Na2HPO4 pH 7 (RRM1+2: plus 150 mM KCl, 1.5 mM MgCl2, 0.2 mM EDTA); NMR and ITC at 40 C; details: protein: recombinant; tags: GB1, His
T1 sequence (Q07955 1-196 Y37S/Y72S): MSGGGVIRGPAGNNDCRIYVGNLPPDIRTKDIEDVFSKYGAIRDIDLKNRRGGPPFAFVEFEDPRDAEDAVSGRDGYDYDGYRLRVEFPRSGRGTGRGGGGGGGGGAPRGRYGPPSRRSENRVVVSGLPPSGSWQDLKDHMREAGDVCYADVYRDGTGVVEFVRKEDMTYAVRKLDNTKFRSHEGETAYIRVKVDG

[2] = target: T1, SRSF1 RRM1+2 YS (RRM12 YS); test: NMR; saturation at 1:1; NMR buffer: 50 mM L-Glu, 50 mM L-Arg, 0.05% beta-mercaptoethanol, 20 mM Na2HPO4 pH 7 (RRM1+2: plus 150 mM KCl, 1.5 mM MgCl2, 0.2 mM EDTA); NMR and ITC at 40 C; details: protein: recombinant; tags: GB1, His
[3] = target: T2, SRSF1 RRM1 (YS or WT not stated) (human, UniProt Q07955 1-97); test: NMR; NMR buffer: 50 mM L-Glu, 50 mM L-Arg, 0.05% beta-mercaptoethanol, 20 mM Na2HPO4 pH 7 (RRM1+2: plus 150 mM KCl, 1.5 mM MgCl2, 0.2 mM EDTA); NMR and ITC at 40 C; details: protein: recombinant; tags: N-terminal GB1-6xHis
T2 sequence (Q07955 1-97): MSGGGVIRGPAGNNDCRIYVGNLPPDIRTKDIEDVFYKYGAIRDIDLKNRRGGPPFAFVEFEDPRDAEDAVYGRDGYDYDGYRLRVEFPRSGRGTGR

SRSF1 RRM1 YS = SRSF1 RRM1 YS (human, UniProt Q07955 1-97, Y37S;Y72S); test: ITC; NMR buffer: 50 mM L-Glu, 50 mM L-Arg, 0.05% beta-mercaptoethanol, 20 mM Na2HPO4 pH 7 (RRM1+2: plus 150 mM KCl, 1.5 mM MgCl2, 0.2 mM EDTA); NMR and ITC at 40 C; details: protein: recombinant; tags: N-terminal GB1-6xHis
Chain of SRSF1 RRM1 YS (Q07955 1-97 Y37S/Y72S): as the sequence (Q07955 1-97) above, with Y37S, Y72S counted along it

SRSF1 RRM1 WT = SRSF1 RRM1 WT (human, UniProt Q07955 1-97); test: NMR; saturation at 1:1; NMR buffer: 50 mM L-Glu, 50 mM L-Arg, 0.05% beta-mercaptoethanol, 20 mM Na2HPO4 pH 7 (RRM1+2: plus 150 mM KCl, 1.5 mM MgCl2, 0.2 mM EDTA); NMR and ITC at 40 C; details: protein: recombinant; tags: N-terminal GB1-6xHis
Chain of SRSF1 RRM1 WT (Q07955 1-97): as the sequence (Q07955 1-97) above

[4] = target: T2, SRSF1 RRM1 (YS or WT not stated); test: NMR solution structure; 1:1 complex; NMR buffer: 50 mM L-Glu, 50 mM L-Arg, 0.05% beta-mercaptoethanol, 20 mM Na2HPO4 pH 7 (RRM1+2: plus 150 mM KCl, 1.5 mM MgCl2, 0.2 mM EDTA); NMR and ITC at 40 C; details: protein: recombinant; tags: N-terminal GB1-6xHis
[5] = target: T1, SRSF1 RRM1+2 YS (RRM12 YS); test: ITC; 143 in the reviewer reply; NMR buffer: 50 mM L-Glu, 50 mM L-Arg, 0.05% beta-mercaptoethanol, 20 mM Na2HPO4 pH 7 (RRM1+2: plus 150 mM KCl, 1.5 mM MgCl2, 0.2 mM EDTA); NMR and ITC at 40 C; details: protein: recombinant; tags: GB1, His

## UGGAUUUUUCAU (ssRNA)
[1]
  Kd: 0.055 µM

## UCAUUGGAUUUUUCAU (ssRNA)
[2]
  binding result: binds

## UUUUUU (ssRNA) [polyU (NMR, length not stated)]
[3]
  binding result: no binding

## CCCCCC (ssRNA) [polyC (NMR, length not stated)]
[3]
  binding result: binds

## GGGGGG (ssRNA) [polyG (NMR, length not stated)]
[3]
  binding result: no binding

## AACGAA (ssRNA) [AACGAA RNA]
SRSF1 RRM1 YS
  Kd: 25 µM
[3]
  binding result: binds

## AACAAA (ssRNA) [AACAAA RNA]
SRSF1 RRM1 YS
  Kd: 21 µM
SRSF1 RRM1 WT
  binding result: binds
[4]
  binding result: binds

## CCCCCC (ssRNA) [CCCCCC RNA (polyC)]
SRSF1 RRM1 YS
  Kd: 11 µM

## UUUAGA (ssRNA) [SMN2 exon7 ESE1 counterpart]
[3]
  binding result: no binding

## UUUUUU (ssRNA) [UUUUUU RNA (polyU)]
SRSF1 RRM1 YS
  binding result: no binding

## UUCAGA (ssRNA) [SMN1 exon7 ESE1]
[3]
  binding result: binds

## UGGAUUUUUUUU (ssRNA)
[5]
  Kd: 0.145 µM

## AAAAAA (ssRNA) [polyA (NMR, length not stated)]
[3]
  binding result: no binding

## UUUUUGGAU (ssRNA)
[1]
  Kd: 0.164 µM
